Among the data in paper PMC11147780, “Vaccination induces broadly neutralizing antibody precursors to HIV gp41” (Nature Immunology, 2024) are Kd values, retold here.

T1: 10E8-GT10.2 epitope scaffold (designed scaffold 10E8-GT10.2 with …, N-linked glycosylation sites added (positions not given))
T1 chain: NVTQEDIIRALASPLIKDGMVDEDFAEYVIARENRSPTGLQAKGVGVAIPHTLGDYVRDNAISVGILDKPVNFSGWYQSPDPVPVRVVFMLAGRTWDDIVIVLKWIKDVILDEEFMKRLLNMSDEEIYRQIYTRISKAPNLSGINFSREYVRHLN

B1: NHP-10E8_MPER-GT10v55_W3-19 (antibody, V domains shown)
VH: EVQLVESGGGLVQPGGSLRLSCAASGFTFSNYWMSWVRQAPGKGLEWVGFIKNKADGGTAAYAESVKGRFSISRDDSKNTLYLQMNSLKTEDTAVYYCTRDVGRYNFWSGYYSHNRIDVWGPGVLVTVSS
VL: SYELTQPPSVSVSPGQMARITCGGDNLGSKYVHWFQQKPAQAPALVIYDDSDRPSGIPERFSGSKSGNTATLTISGVESGDEADYYCQVWDSGTDHPLFGGGTRLTV
B2: MPER18_d21_45.2_v55_04 (antibody, V domains shown)
VH: QVQLQESGPGLVKPSETLSLTCTVSGDSISSYYWNWIRQPPGKGLEWIGYFYYYGSTNYNPSLKSRVTISVDTSKNQFSLNLSSVTAADTAVYYCAREPPYYDFWSGLSMGVDTFDIWGQGTMVTVSS
VL: DVVMTQTPLSLPVSLGDQASISCRSSQSLVHSNGNTYLHWYLQKPGQSPKLLIYKVSNRFSGVPDRFSGSGSGTDFTLKISRVEAEDLGVYFCSQSTHVPRTFGGGTKLEIK
B3: MPER18_d21_45.2_v55_m15_C11 (antibody, V domains shown)
VH: QVQLQESGPGLVKPSETLSLTCTVSGGSISSYYWNWIRQPPGKGLEWIGYIFYSGTTNYNPSLKSRVTISVDTSKNQFSLKVRSVTAADTAVYYCAREPPYYDFWSGLSMGVGSFDIWGQGTMVTVSS
VL: DIVMTQSPLSLPVSLGDQASISCRSSQTIVYSSGYTYLEWYLQKPGQSPKLLIYKVSNRFSGVPDRFSGSGSGTDFTLKISRVEAEDLGVYFCFQGSHVPWTFGGGTKLEIK
B4: MPER18_d21_45.2_v55_22 (antibody, V domains shown)
VH: QVQLQESGPGLVKPSETLSLTCTVSGGSISSYYWSWIRQPPGKGLEWIGYIYYSGSTNYNPSLKSRVTISVDTSKNQFSLKLSSVTAADTAVYYCAREPPYYDFWGGLFMGVGAFDIWGQGTMVTVSS
VL: DVLMTQTPLSLPVSLGDQASISCRSSQSIVHSNGNTFLEWYLQKPGQSPNLLIYRVSNRLSGVPDRFSGSGSGTDFTLKISRVEAEDLGVYYCFQGSHVPWTFGGGTKLEIK
B5: MPER18_d21_45.2_v55_24 (antibody, V domains shown)
VH: QVQLQESGPGLVKPSETLSLTCTVSGGSISSYYWSWIRQPPGKGLEWIGYIYYSGSTNYNPSLKSRVTISVDTSKNQFSLKLSSVTAADTAVYYCAREPPYYDFWSGLSMGVGAFDIWGQGTLVTVSS
VL: DVLLTQSPLALPVSLGDQASISCRSSQSIVHSNGYTYLEWYLQKPGQSPKLLVYKVSNRFSGVPDRFSGSGSGTDFTLKISRVETEDLGVYYCFQGSHVPYTFGGGTKLEIK
B6: MPER18_d21_45.2_v55_m15_C05 (antibody, V domains shown)
VH: QVQLQESGPGLVKPSETLSLTCTVSGGSISSYCWSWIRQSPGKGLEWIGYIYYSGSINHNPSLKSRVTISADTSKNQFSLKLSSVTAADTAVYYCAREPPYYDFWSGLSMGVGAFDIWGQGTMVTVSS
VL: DIVMTQSPLSLPVSLGDQASISCRSSQSLVHNNGNTYLHWYLQQPGQSPKLLIYNFSNRFSGVPDRFSGSGSGTDFTLKISRVEAEDLGVYFCSQSTHVPRTFGGGTKLEIK
B7: MPER18_d21_45.2_v55_17 (antibody, V domains shown)
VH: QVQLQESGPGLVKPSETLSLTCTVSGGSISSYFWSWIRQPPGKGLEWIGYIYNSGSTNYHPSLKSRVTISVDTSKNQFSLKLSSVTAADTAVYYCAREPPYYDFWSGLSMGVGAFDIWGQGTMVTVSS
VL: DVLMTQTPLSLPVSLGDQASISCRSSQSIVHSSGNTYLEWYLQKPGQSPKLLIYKVSNRFSGVPDRIGGSGSGTDFTLKISRVEAEDLGVYFCFQGSHVPWTFGGGTKLEIK
B8: MPER18_d21_45.2_v55_12 (antibody, V domains shown)
VH: QVQLQESGPGLVTPSETLSLTCTVSGDSISSYYWNWIRQPPGKGLEWIEYMFYSGSTNYNPSLKSRVTISVDTSKNQFSLKLSSVTAADTAVYYCAREPPYYDFWSGLSMGVGAFDIWGQGTMVTVSS
VL: DIVMTQSPLSLPVSLGDQASISCRSSQSIVHSNGYTYLDWYLQRPGQSPKLLIYKVSNRFSGVPDRFSGSGSGTDFTLKISRVEAEDLGVYYCFQGSHVPYTFGGGTKLEIK
B9: MPER18_d21_45.1_v55_m3_F03 (antibody, V domains shown)
VH: EVQLQQSGPVLVKPGPSLKISCKASGFTITDYYMHWVKQTHGKSLAWIGLLYPYNGGTSYNQKFKGKATLTVDTSSSTAYMELNSLTSDDSAVYYCAREGHYDRKGYFDVWGTGTTVTVSS
VL: DIVMTQSHKFMSTSVGDRVSITCKASQDVSTAVAWYQQKPGQSPKLLIYWASTRHTGVPDRFTGSGSGTDYTLIISSVQAEDLALYYCQQHYSIPFTFGSGTKLEIK
B10: MPER-052 (antibody, V domains shown)
VH: EVQLVESGGGLVQPGRSLRLSCTASGFTFGDYAMSWVRQAPGKGLEWVGFIRSKAYGGTTEYAASVKGRFTISRDDSKSIAYLQMNSLKTEDTAVYYCTRDLMGYYDFWSGYYRGHYGMDVWGKGTTVTVSS
VL: AIQMTQSPSSLSASVGDRVTITCRASQGIRNDLGWYQQKPGKAPKLLIYAASSLQSGVPSRFSGSGSGTDFTLTISSLQPEDFATYYCLQDYNYPLTFGGGTKVEIK
B11: MPER18_d21_45.2_v55_15 (antibody, V domains shown)
VH: QVQLQESGPGLVKPSETLSLTCTVSGGSISSYSWSWIRQPPGKGLEWIGYISYSGSTNYNPSLKSRVTISVDTSKSQFSLKLSSVTAADTAVYYCAREPPYYDFWNELSMGVGAFDIWGQGTMVTVSS
VL: DVLMTQIPLSLPVSLGDQASISCRSSQSIVQNNGNTFLEWFLQKPGQSPKLLIYRVSNRFSGVPDRFSGSGSGTDFTLKISRVEAEDLGVYYCFQGSHVPWTFGGGTKLEIK
B12: MPER18_d21_45.2_v55_m15_A04 (antibody, V domains shown)
VH: QVQLQESGPGLVKPSETLSLTCTVSGGSISSYYWSWIRQPPGKGLEWIGYIFYSGSTNYNPSLRSRVTISVGTSKNQFSLKLNSVTAADTAVYYCAREPPYYDFWSGLSMGMGAFDIWGQGTMVTVSS
VL: DILMTQSPLSLPVSLGDQASISCRSSQSIVHSNGNSYLEWYLQKPGQSPKLLIYKVSNRFSGVPDRFSGSGSGTDFTLKISRVEAEDLGVYYCFQGSHIPWTFGGGTKLEIK
B13: MPER18_d21_45.2_v55_21 (antibody, V domains shown)
VH: QVQLQESGPGLVKPSETLSLTCTVSGGSISSYYWSWIRQPPGKGLEWIGYISYSGSTNYNPSLKSRVTISVDTSKNQFSLKLSSVTTADTAVYYCAREPPYYDFWNELSMGVGAFDIWGQGTMVTVSS
VL: DVLMTQIPLSLPVSLGDQASISCSSSQSIVQNNGNTFLEWFLQKPGQSPKLLIYRVSNRFSGVPDRFSGSGSGTDFTLKISRVEAEDLGVYYCFQGSHVPWTFGGGTKLEIK
B14: MPER18_d21_45.2_v55_m15_A06 (antibody, V domains shown)
VH: QVQLQESGPGLVKPSETLSLACTVSGGSFSSSYWSWIRQPPGKGLEWIGYIYYSGSTNYNPSLKSRVTMSVDTSKNQFSLKLSSVTAADTAVYYCAREPPYYDFWSGLSMGVGAFDIWGQGTMVTVSS
VL: DVLMTQSPLSLSVSLGDQASISCRSSQSVVHSNGNTYLEWYLQQPGQSPKLLIYKVSNRFSGVPDRFSGSGSGTDFTLKISRVEAEDLGVYYCFQGSHVPWTFGGGTKLEIK
B15: MPER18_d21_45.1_v55_m3_C07 (antibody, V domains shown)
VH: QVQLKQSGPGLVQPSQSLSITCTVSGFSLTNYDIHWVRQSPGKGLEWLGVIWSGGSTDYNAGFISRLSISKDNSKSQVFFKMNSLQGDDTAIYYCARGGGYYEDYVMDYWGQGTSVTVSS
VL: DIQMTQSPASLSASVGETVTITCRASGNIHNYLAWYQQKQGESPHLLVYNAKTLADGVPSRFSGSDSGTQYSLKINSLQPEDFGSYYCQHFWTTPYTFGGGTKLEIK
B16: MPER18_d21_45.1_v55_m3_D12 (antibody, V domains shown)
VH: QVQLQQSGAELMKPGASVILSCKATGYTFTGYWIEWVKLRPGHGLEWIGEILPGNSSTKYNEKFKGKATFTADTSSNTANMQLSSLTTEDSAIYYCARRWNDYDGVAWFGYWGQGTLVSVSA
VL: DIQMTQSPASLSASVGETVTITCRASGNIHNYLAWYQQKQGKSPQLLVYSAKTLADGVPSRFSGSGSGTQYSLKINSLQPEDFGSYYCQHFWSTPYTFGGGTKLEIK
B17: MPER18_d21_45.1_v55_m3_D01 (antibody, V domains shown)
VH: QVQLKQSGPGLVQPSQSLSITCTVSGFSLTNYDVHWVRQSPGKGLAWLGVIWSGGSTDYNATFISRLSISKDNSKTQVFFKMNSLQADDTAIYYCARGGGYYEDYAMDYWGQGTSVTVSS
VL: NIVLTQSPASLAVSLGQRATISCRASESVDTYGNSFMHWYQLKPGQPPKLLIYLASNLESGVPARFSGSGSRTDFTLTIDPVEADDAATYYCQQNNEDPYTFGGGTELEIQ
B18: MPER18_d21_45.1_v55_m3_F02 (antibody, V domains shown)
VH: QVQLKQSGPGLVQPSQSLSITCTVSGFSLTSNGVHWVRQSPGKGLDWLGVIWTGGSTDYNTTFLSRLSISKDNSKSQVFFKMNSLQADDTAIYYCARGGGYYEDYAMDYWGQGTSVTVSS
VL: DIQMTQSPASLSASVGETVTITCRASGNIHNYLAWYQQKQGKSPQLLVYNAKTLADGVPSRFSGSGSGTQYSLKINSLQPEDFGSYCCQHFWSTPYTFGGGTKLEIR
B19: NHP-10E8_MPER-GT10v55_W3-18 (antibody, V domains shown)
VH: EVQLVESGGGLVQPGGSLRLSCAASGFTFSDYAMDWVRQAPGKGLEWVGYIRSKDYGGTAEYAASVKGRLTISRDDSKNTAYLQMNSLKTEDTAVYYCSRGRGYYHFWSGYYTPYNRFDVWGPGVLVTVSS
VL: DVVMTQSPLSLPVTPGQPASISCRSSQSLVHSDGKTYLNWLQQKPGQPPRRLIYQVSNRDSGVPDRFSGSGAGTDFTLKISRVEAEDVGVYYCVQGTNVPWTFGQGTKVEIK
B20: MPER-051 (antibody, V domains shown)
VH: QVQLVESGGGLVKPGGSLRLSCAASGFTFSDYYMSWIRQAPGKGLEWVSYISSSGSTIYYADSVKGRFTISRDNAKNSLYLQMNSLRAEDTAVYYCASLAHTYYDFWSGYYDRYYGMDVWGKGTTVTVSS
VL: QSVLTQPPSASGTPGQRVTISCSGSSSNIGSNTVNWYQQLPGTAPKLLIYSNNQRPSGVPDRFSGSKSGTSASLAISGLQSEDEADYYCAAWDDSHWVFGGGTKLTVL
B21: MPER18_d21_45.1_v55_m3_B08 (antibody, V domains shown)
VH: QVQLQQPGAELVKPGASVKLSCKASGYTFTSYWMHWVKQRPGQGLEWIGMIRPNSGSTNYNERFKSKATLTVDKSSSTAYMQLSSLTSGDSAVYYCAKGGTWTMDYWGQGTSVTVSS
VL: DIVMTQSPSSLSVSAGEKVTMICKSSQSLLNSGNQKNYLAWYQQKPGQPPKLLIYGASTRESGVPDRFTGSGSGTDFTLTISSVQAEDLAVYYCQNDHSYPLTFGAGTKLELK

The target in this test is T1, 10E8-GT10.2 epitope scaffold.
As a reminder, the Kd is the free concentration of one partner at which half of the binding sites on the other are occupied at equilibrium, for simple one-to-one binding. Low readings indicate higher affinity, high ones lower affinity. In the case of B1, binding was characterised by a dissociation constant (Kd) of 345 nM.
As for B2, the figure is 563 nM.
The value for B3 was 6.91 nM; that for B4 was 2.87 nM; that for B5 was 0.249 nM.
B6 came in with a Kd of 401 nM.
Molecule B7 showed a Kd of 13.2 nM.
The value for B8 was 0.662 nM; that for B9 was 31.2 nM.
As for B10, the figure is 4100 nM.
As for B11, the figure is 9.89 nM; as for B12, 14.1 nM.
Regarding B13, binding was put at a Kd of 2.21 nM.
The value for B14 was 86.1 nM; that for B15 was 985 nM.
As for B16, the figure is 1250 nM; as for B17, 3.38 nM.
As for B18, the figure is 94.6 nM.
Consider B19, for which the Kd is 1.16 nM.
As for B20, the figure is 13000 nM; as for B21, 245 nM.
